Results taken from article PMC3273807 (Nucleic Acids Research, 2011).

Biological target: the molecule itself
Test: fluorescence polarisation

B1: Wild-type FokI restriction endonuclease (enzyme)
chain: KIRTFGWVQNPGKFENLKRVVQVFDRNSKVHNEVKNIKIPTLVKESKIQKELVAIMNQHDLIYTYKELVGTGTSIRSEAPCDAIIQATIADQGNKKGYIDNWSSDGFLRWAHALGFIEYINKSDSFVITDVGLAYSKSADGSAIEKEILIEAISSYPPAIRILTLLEDGQHLTKFDLGKNLGFSGESGFTSLPEGILLDTLANAMPKDKGEIRNNWEGSSDKYARMIGGWLDKLGLVKQGKKEFIIPTLGKPDNKEFISHAFKITGEGLKVLRRAKGSTKFTRVPKRVYWEMLATNLTDKEYVRTRRALILEILIKAGSLKIEQIQDNLKKLGFDEVIETIENDIKGLINTGIFIEIKGRFYQLKDHILQFVIPNRGVTKQLVKSELEEKKSELRHKLKYVPHEYIELIEIARNSTQDRILEMKVMEFFMKVYGYRGKHLGGSRKPDGAIYTVGSPIDYGVIVDTKAYSGGYNLPIGQADEMQRYVEENQTRNKHINPNEWWKVYPSSVTEFKFLFVSGHFKGNYKAQLTRLNHITNCNGAVLSVEELLIGGEMIKAGTLTLEEVRRKFNNGEINF
binding result: binds
